The values below come from article PMC11162469, “Discovery of RXFP2 genetic association in resistant hypertensive men and RXFP2 antagonists for the treatment of resistant hypertension” (Scientific Reports, 2024).

The target of experiment [1] is T1, human LDLa peptide (UnitProt Q8WXD0 43-80) (Homo sapiens, UniProt Q8WXD0).
T1 construct: human LDLa peptide (Q8WXD0 43-80)
In words: ELISA binding to linker-less human LDLa peptide. As to the method:
The human/rat RXFP2 cross reactive antibodies belong to two epitope bins and were further evaluated for binding to the linker-less human LDLa peptide (UnitProt Q8WXD0 43-80) by ELISA. […] The different domain requirements for binding are consistent with results from the binning experiment showing 4F6 and 4G6 are in a separate bin from 4B1.
Rat LDLa-linker_ratFc, human LDLa-linker_ratFc, or ratFc, or human LDLa peptide (Q8WXD0 43-80) was diluted to 1 µg/mL in 1X PBS and immobilized in separate 96-well ELISA plates (Nunc Maxisorp), 50 µL/well. The plates were then incubated overnight at 4 °C. The following day the plates were washed three times with ELISA wash buffer (PBS + 0.05% Tween-20) and then blocked with ELISA blocking buffer (PBS + 0.05% Tween-20 + 1% BSA), 200 µL/well, and incubated 1 h at room temperature on a shaker. Plates were again washed three times followed by the addition of the primary antibodies. Hybridoma supernatant was added neat, 50 µL/well; mouse serum was added 1:100 and then serially diluted 1:2 for 8 points, 50 µL/well. Purified antibodies were added 5 µg/mL in the first well and serially diluted down the plate 1:2 for 8 points, 50 µL/well. Primary antibody was incubated for 1 h at room temperature on a shaker. […] Stopping solution (2N Sulfuric acid) was added to the plates 50 µL/well, and then read on a plate reader (SpectraMax Molecular Devices) at 450 nm.
A general note: ELISA stands for enzyme-linked immunosorbent assay.

For the next experiment, the target named is rat RXFP2 (Rattus norvegicus, UniProt F7EMH8). In words: Cortisol secretion (ELISA) in H295R stably expressing rat RXFP2. The note with it: H295R-rRXFP2, 3.5 nM INSL3, 48 h, read-out: IC50 on INSL3-induced cortisol release. It counts as cell-based. On the set-up: expressed in transfected cells. As to the method:
RXFP2 antagonists were added to H295R-rRXFP2 before addition of INSL3 EC80 (3.5 nM) for 48 h, whereupon the cells and supernatants were collected. CYP11B1 and CYP11B2 mRNA were determined by qPCR and the RXFP2 blocker potencies were calculated (Fig. 5a). Fifteen antibodies have IC50s < 50 nM, and three of the top antibodies (1F2, 4G6, and 2D4) were selected for evaluation in steroid hormone secretion assays by ELISA.
The day after seeding, H295R cells were treated and incubated for 48 h before supernatants and cell lysates were collected. Treatments included INSL3, IgG, 1F2, and 4G6 at 0.035 pM–3.5 µM, 2D4 at 0.01 nM–1 uM, or phosphate buffered saline control. In RXFP2 antagonist assays, 3.5 nM INSL3 was used as the stimulus. Cortisol present in the adrenal cell supernatant at 48 h post treatment was detected by ELISA (R&D KGE008B). Sample dilution was optimized at 1/90 using a standard curve. Aldosterone was below the limit of detection by ELISA (R&D KGE016) and required liquid–liquid extraction (LLE) twice using methyl tetra butyl ether. Post extraction samples were dried (SPE Nitrogen dryer) and reconstituted for ELISA analysis. All samples were run in duplicates.

Another experiment concerns the target human RXFP2 (Homo sapiens, UniProt Q8WXD0). In words: INSL3-stimulated cAMP assay in HEK293 stably expressing human RXFP2. On the technique in general: Cyclic AMP is a second messenger, typically raised through Gs and lowered through Gi signalling.

human RXFP2, sequence (Q8WXD0 whole entry): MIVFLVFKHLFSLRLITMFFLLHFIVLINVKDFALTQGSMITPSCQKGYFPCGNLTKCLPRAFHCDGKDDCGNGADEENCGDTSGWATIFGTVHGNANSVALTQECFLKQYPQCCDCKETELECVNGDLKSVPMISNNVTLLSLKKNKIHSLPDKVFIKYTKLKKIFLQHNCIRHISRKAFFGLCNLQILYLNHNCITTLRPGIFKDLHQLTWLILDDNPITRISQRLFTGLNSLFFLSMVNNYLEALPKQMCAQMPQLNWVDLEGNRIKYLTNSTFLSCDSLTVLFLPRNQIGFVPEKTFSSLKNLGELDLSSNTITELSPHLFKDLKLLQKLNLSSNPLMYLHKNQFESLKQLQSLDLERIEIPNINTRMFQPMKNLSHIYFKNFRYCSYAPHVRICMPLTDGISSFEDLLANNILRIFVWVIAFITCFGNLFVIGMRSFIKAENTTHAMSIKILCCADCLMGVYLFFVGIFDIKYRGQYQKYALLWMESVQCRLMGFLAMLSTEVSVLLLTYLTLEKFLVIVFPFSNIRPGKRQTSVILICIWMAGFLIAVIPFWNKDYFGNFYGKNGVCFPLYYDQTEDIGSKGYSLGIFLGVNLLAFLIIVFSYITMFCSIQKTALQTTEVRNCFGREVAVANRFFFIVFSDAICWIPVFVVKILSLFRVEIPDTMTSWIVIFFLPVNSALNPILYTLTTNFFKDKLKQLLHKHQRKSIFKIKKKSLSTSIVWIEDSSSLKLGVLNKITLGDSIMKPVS
rat RXFP2, sequence (F7EMH8 20-737): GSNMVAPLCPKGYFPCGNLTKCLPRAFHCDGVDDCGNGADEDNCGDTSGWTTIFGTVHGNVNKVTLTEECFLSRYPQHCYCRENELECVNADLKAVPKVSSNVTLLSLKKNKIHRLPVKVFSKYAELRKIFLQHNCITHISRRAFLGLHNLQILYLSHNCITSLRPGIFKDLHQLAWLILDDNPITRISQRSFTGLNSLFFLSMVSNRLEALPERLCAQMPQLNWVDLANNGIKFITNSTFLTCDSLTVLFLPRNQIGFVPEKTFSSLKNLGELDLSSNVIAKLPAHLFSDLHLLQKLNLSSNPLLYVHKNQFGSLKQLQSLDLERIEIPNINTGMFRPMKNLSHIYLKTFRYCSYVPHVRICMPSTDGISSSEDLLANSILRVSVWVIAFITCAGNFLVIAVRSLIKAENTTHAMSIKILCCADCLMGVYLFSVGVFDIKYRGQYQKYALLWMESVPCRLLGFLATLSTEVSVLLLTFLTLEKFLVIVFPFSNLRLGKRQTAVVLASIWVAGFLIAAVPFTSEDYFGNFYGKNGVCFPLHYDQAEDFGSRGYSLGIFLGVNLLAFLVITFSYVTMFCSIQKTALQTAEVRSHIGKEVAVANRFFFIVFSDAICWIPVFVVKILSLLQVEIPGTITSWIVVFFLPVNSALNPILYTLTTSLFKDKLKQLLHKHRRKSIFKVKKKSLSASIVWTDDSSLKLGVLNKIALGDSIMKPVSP
T1 sequence (Q8WXD0 43-80 limits assumed): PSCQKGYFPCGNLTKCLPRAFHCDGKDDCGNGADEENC
Procedure for human RXFP2: RXFP activity assays were developed in HEK293 with stable expression of RXFP2 or RXFP1.
The same approach was used to generate stable HEK293 lines expressing human and rat RXFP1 and RXFP2 cDNA. The cAMP assay was conducted using the Eurofin Hithunter kit per manufacturer’s instructions in a 384-well format. All dose curve fitting and EC50 and IC50 determinations were performed in Prism (v9.3.0) using the non-linear fit, variable slope (four parameter) function.

B1: 4G6: Human/rat cross-reactive RXFP2 monoclonal antibody, rat IgG2b backbone; binds the LDLa domain (antibody, V domains shown)
VH: EVQLQQSGPELVKPGASVKLSCKASGYTFTSYVMHWVKQKPEQGLEWIGYKNPSNDGIKYNEKFKGKATLTSDKSSNIAYMELFSLTSEDSAVYYCARSDFGSVWAMDYWGQGTSVTVSS
VL: SIVMTQTPKFLLVSAGDRVTITCKASQSVNDDIVWYQQKPGQSPKLLIYYASNRYTGVPDRFTGSGYGTDFTFTISTVQAGDLAVYFCQQDYSSPFTFGSGTKLEIK
One may read the IC50 as the concentration that inhibits the measured activity by half. For the molecule B1, in experiment [1], the “binding to linker-less human LDLa peptide” value is “bind”. The IC50 in the experiment with rat RXFP2 was 0.26 nM; in the experiment with human RXFP2 (read-out: HEK293-human RXFP2 cAMP IC50, INSL3 EC80-stimulated cAMP, stable expression, N = 2), 15.6 nM. The “blockade of hRXFP2” value with human RXFP2 (INSL3-stimulated cAMP, HEK293-hRXFP2) is listed as “strong blockade”. Further, in the experiment with human RXFP2 (INSL3 EC80-stimulated cAMP, stable expression, N = 2), the “HEK293-human RXFP2 cAMP % Max Response” value is 84.5%.
